In publication PMC12730314, “The Role of Surfactants in Stabilizing Fluorescence Anisotropy for Protein–Aptamer Binding Affinity Measurements”:

B1: TR-labeled s10yh2 (ssDNA)
DNA: TCCACGATGTAGGATCCACATGAGCGCTCCTGTTACCCTG
B2: TR-labeled thrombin-binding 29mer (structured_DNA)
DNA: AGTCCGTGGTAGGGCAGGTTGGGGTGACT

Tests used:
[1] = molecular target: human serum albumin (HSA) (Homo sapiens, UniProt P02768 25-609); experiment: fluorescence anisotropy; PBS + 5 mM MgCl2, no Tween 20; saturable, poor 1:1 fit; 25 C, 40 min; HSA: PBS +; conditions: protein: commercial
Chain of human serum albumin (HSA) (P02768 25-609): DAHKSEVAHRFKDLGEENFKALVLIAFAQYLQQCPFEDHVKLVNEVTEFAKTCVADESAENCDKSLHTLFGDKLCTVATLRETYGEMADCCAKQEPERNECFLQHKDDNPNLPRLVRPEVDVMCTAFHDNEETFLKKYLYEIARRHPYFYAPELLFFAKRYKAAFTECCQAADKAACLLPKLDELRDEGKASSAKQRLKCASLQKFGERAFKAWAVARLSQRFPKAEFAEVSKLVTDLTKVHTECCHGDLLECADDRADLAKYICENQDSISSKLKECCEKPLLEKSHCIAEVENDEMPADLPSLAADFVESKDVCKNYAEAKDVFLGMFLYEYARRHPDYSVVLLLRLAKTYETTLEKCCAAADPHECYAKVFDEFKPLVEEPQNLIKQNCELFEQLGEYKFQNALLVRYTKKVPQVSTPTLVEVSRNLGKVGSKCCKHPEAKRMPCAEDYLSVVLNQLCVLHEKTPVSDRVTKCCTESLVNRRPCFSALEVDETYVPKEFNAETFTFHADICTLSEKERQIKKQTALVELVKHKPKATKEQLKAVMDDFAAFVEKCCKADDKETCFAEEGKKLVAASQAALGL

thrombin (human plasma) [2] = molecular target: T1, thrombin (human plasma) (Homo sapiens, UniProt P00734;P00734 328-363;364-622); experiment: fluorescence anisotropy; 0.1% Tween 20, 25 nM aptamer; Hill fit; Thrombin: TGK (192 mM Tris, 5 mM KH2PO4, 25 mM glycine hydrochloride; pH not stated) +/- 0.1% Tween 20, thrombin stock in 1 mg/mL BSA, 25 C, 40 min; HSA: PBS +
thrombin (human plasma) [3] = molecular target: T1, thrombin (human plasma); experiment: fluorescence anisotropy; 0.1% Tween 20, 50 nM aptamer; Hill fit; Thrombin: TGK (192 mM Tris, 5 mM KH2PO4, 25 mM glycine hydrochloride; pH not stated) +/- 0.1% Tween 20, thrombin stock in 1 mg/mL BSA, 25 C, 40 min; HSA: PBS +
thrombin (human plasma) [4] = molecular target: T1, thrombin (human plasma); experiment: fluorescence anisotropy; 0.1% Tween 20, 75 nM aptamer; Hill fit; Thrombin: TGK (192 mM Tris, 5 mM KH2PO4, 25 mM glycine hydrochloride; pH not stated) +/- 0.1% Tween 20, thrombin stock in 1 mg/mL BSA, 25 C, 40 min; HSA: PBS +
thrombin (human plasma) [5] = molecular target: T1, thrombin (human plasma); experiment: fluorescence anisotropy; no surfactant, 75 nM aptamer; Hill fit; Thrombin: TGK (192 mM Tris, 5 mM KH2PO4, 25 mM glycine hydrochloride; pH not stated) +/- 0.1% Tween 20, thrombin stock in 1 mg/mL BSA, 25 C, 40 min; HSA: PBS +

| Binder | binding result [1] | Kd (thrombin (human plasma) [2]) [nM] | Kd (thrombin (human plasma) [3]) [nM] | Kd (thrombin (human plasma) [4]) [nM] | Kd (thrombin (human plasma) [5]) [nM] |
| --- | --- | --- | --- | --- | --- |
| B1 | binds | – | – | – | – |
| B2 | – | 35 | 53 | 30 | 54 |
